Assay results from PMC13389190.

Biological target: SpAB-T7 RNAP

Sequence of Bamlanivimab (antibody) (VH): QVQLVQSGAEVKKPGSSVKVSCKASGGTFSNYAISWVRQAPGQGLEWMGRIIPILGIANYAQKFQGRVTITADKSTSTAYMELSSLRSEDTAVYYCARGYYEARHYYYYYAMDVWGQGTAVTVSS
Sequence of Bamlanivimab (antibody) (VL): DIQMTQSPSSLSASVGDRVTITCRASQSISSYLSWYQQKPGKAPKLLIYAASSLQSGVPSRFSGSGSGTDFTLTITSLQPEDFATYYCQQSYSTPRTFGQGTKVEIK

## Bamlanivimab (antibody)
  MDC (minimal detectable concentration of Bamlanivimab in the ZF-RBD / SpAB-T7 RNAP sensor, 2.5% human serum): 12.7 nM
